Experimental findings from doi:10.1101/2023.08.20.554024, “Structural framework for the understanding spectroscopic and functional signatures of the cyanobacterial Orange Carotenoid Protein families” (bioRxiv, 2023) are described below.

For one assay, the target named is GcapOCP2(ECH) (Gloeocapsa sp. PCC 7428). The assay can be described thus: cell-based or functional assay.
For another assay, the target named is T1, ΔNTE-SynOCP1(ECH) (Synechocystis sp. PCC 6803, UniProt P74102 13-317).
T1 construct: Orange Carotenoid Protein (OCP1), Synechocystis sp; PCC 6803, Uniprot P74102, lacking residues Met1-Phe12 (the N-terminal extension); also called ΔNTE mutant of SynOCP1; ΔNTE-SynOCP1 holoform; source: obtained earlier [24]
T1 sequence (looked up): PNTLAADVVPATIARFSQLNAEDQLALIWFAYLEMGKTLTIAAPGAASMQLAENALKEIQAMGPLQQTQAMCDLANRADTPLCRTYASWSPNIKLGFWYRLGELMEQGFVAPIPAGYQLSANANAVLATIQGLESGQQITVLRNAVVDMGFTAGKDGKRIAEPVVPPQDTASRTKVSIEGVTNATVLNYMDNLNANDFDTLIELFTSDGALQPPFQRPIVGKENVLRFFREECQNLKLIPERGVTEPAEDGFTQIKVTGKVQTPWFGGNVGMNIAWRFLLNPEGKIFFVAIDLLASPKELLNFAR
Kind of assay: SEC; 10 μM OCP and 20 μM FRP pre-incubated in SEC buffer (20 mM Tris-HCl pH 7.6, 150 mM NaCl) for 15 min at room temperature; Superdex 200 Increase 5/150, 0.45 ml/min; profiles at 280 or 460 (or 500) nm, compared with algebraic sums of the single profiles. The settings on record: both partners purified.

B1: Fluorescence Recovery Protein from Synechocystis sp. PCC 6803 (natural protein, UniProt P74103 1-109, looked up)
chain: MLQTAEAPWSQAETQSAHALFRKAYQRELDGLLATVQAQASQITQIDDLWKLHDFLSAKRHEIDGKYDDRQSVIIFVFAQLLKEGLVQAEELTFLAADKQSKIKALARL
notes: Fluorescence Recovery Protein (FRP), Synechocystis sp; PCC 6803, Uniprot P74103; also called SynFRP; FRP; source: obtained in previous works [24,30] as electrophoretically homogeneous preparation devoid of tags
In the case of B1, in the assay with GcapOCP2(ECH), the “τ1/2 of the R-O transition of GcapOCP2 (OD550 after switching off blue LED) with a two-fold molar excess of SynFRP, 5-23 °C (203 to 250 s at 5°C, 12 to 16 s at 20°C)” value came to 250 s. Further, the binding result in the assay with ΔNTE-SynOCP1(ECH) is “binds”.
